Laboratory results reported in the supplement of paper PMC9732359.
± gives the uncertainty stated by the source.

Assay: protein stability index of a GFP-peptide fusion (yeast GPS) (PSI 1-4); higher = more stable; sorted into four equal gates, so the index is relative within each strain
Conditions: pdr5∆
Method in brief: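 Mid-log yeast cultures in leucine-free medium, carrying a pooled plasmid library, were sorted into four equal gates by their GFP/Cherry fluorescence ratio. Each plasmid expressed Cherry along with GFP fused upstream of a tiled 17-residue yeast protein peptide. Plasmids recovered from each gate were PCR-amplified and Illumina-sequenced, with reads assigned to strains by barcodes. The protein stability index was obtained by summing each gate's read frequency weighted by its gate number.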
In the case of GTGKTMLVKAVANSTKA [RPT3], the protein stability index is reported as 1.47 ± 0.1.
GTGNNNKLNFIVDDKQE [DIB1] showed a protein stability index of 1.36 ± 0.047.
Work on GTIKKIEQFAMRRNSKI [POP5] yielded a protein stability index of 2.73 ± 0.05.
For GVAHLLNRFNFQNTNTR [QCR2], the protein stability index was 2.58 ± 0.086.
GVARIYASFNDTFVHVT [RPS14B] gave a protein stability index of 2 ± 0.085.
GVARNFHFAIEQISNNS [SIN4] gave a protein stability index of 2.13 ± 0.075.
In the case of GVDPTGSHLFSIHAHGS [PUP1], the protein stability index is reported as 2.52 ± 0.15.
Work on GVLKPDITFFGEALPNK [SIR2] yielded a protein stability index of 3.19 ± 0.083.
Sequence GVLLPTRIKLLLTKNVS [RPS6A] has a protein stability index of 1.49 ± 0.11.
Sequence GVTIEFSTNVKDEIVLS [RPL9A] has a protein stability index of 3.33 ± 0.13.
In the case of GVWVRYDSRSGTHNMYK [RPL20A], the protein stability index is reported as 2.3 ± 0.26.
Work on GYKMIPGAKPLQVGDVV [FAS1] yielded a protein stability index of 2.44 ± 0.1.
HAPAYHRSKKDQDQYLE [IRR1] gave a protein stability index of 3.56 ± 0.3.
HAQLLLSDRITGNFIIP [PRP8] gave a protein stability index of 2.52 ± 0.071.
Sequence HDYWNKIMQSISNKDVI [SRB4] has a protein stability index of 1.62 ± 0.23.
With HEIYGSMPLEQLIPIIL [SRB4] the protein stability index was 2.08 ± 0.068.
In the case of HEVVQDDSFSLLRIQML [PCI8], the protein stability index is reported as 2.96 ± 0.063.
Work on HFFKWIEFIVYHQLLSD [SRB8] yielded a protein stability index of 1.3 ± 0.046.
HFNGIRRLDALVEKVYA [ITC1] showed a protein stability index of 2.77 ± 0.068.
Work on HGHLGFLPRKRAASIRA [RPL3] yielded a protein stability index of 2.44 ± 0.067.
HGLILELQKIWQIEEAG [SRB5] showed a protein stability index of 2.93 ± 0.091.
For HGLKQLRDSLADKIVDE [NUT2], the protein stability index was 2.13 ± 0.077.
HGMSVDPRHIQLLGDVM [RPO31] gave a protein stability index of 2.82 ± 0.062.
With HGSISPQEESVSPNISS [SIR3] the protein stability index was 3.06 ± 0.07.
In the case of HHELVPKHIRLSSDEKR [RPB5], the protein stability index is reported as 3.54 ± 0.12.
With HHFTCEITGTSCLTFFQ [ITC1] the protein stability index was 2.2 ± 0.057.
Sequence HHRIFDSSAHFKGALTI [YMR129W/POM152] has a protein stability index of 2.73 ± 0.084.
Work on HICGICGLMTVIAKLNH [RPB2] yielded a protein stability index of 1.33 ± 0.08.
Sequence HIFQVEYALEAVKRGTC [PRE6] has a protein stability index of 2.75 ± 0.13.
In the case of HILAVKKMMNTLVHTRV [SSN2], the protein stability index is reported as 2.03 ± 0.062.
In the case of HINKIPSNSTTTLHGPG [SRB8], the protein stability index is reported as 3.17 ± 0.059.
Work on HIPRLIPKQLLDDEKIF [YJL039C/NUP192] yielded a protein stability index of 1.54 ± 0.088.
HIQEEEEQDVDMTGDEE [RPC19] showed a protein stability index of 3.35 ± 0.13.
Sequence HKDSFYDRATLTQLLSM [RPO31] has a protein stability index of 2.09 ± 0.062.
HKKDRLQYLPLYAVSTF [SIR4] showed a protein stability index of 1.66 ± 0.035.
With HKLDLAKRNLDANPSSQ [SMC2] the protein stability index was 2.24 ± 0.065.
In the case of HKQISAEDLTIAAKTHI [SIN4], the protein stability index is reported as 3.1 ± 0.079.
HKSGKLSVKIGNVVMDI [RPC53] showed a protein stability index of 1.25 ± 0.073.
With HLCSGILSSVNRTVLLK [SRB8] the protein stability index was 1.67 ± 0.15.
With HLERNRKDKDAKFRLIL [RPS13] the protein stability index was 3.06 ± 0.13.
Sequence HLGCVPIGEAGDFGGWF [RIP1] has a protein stability index of 3.08 ± 0.11.
HLLSINYGEKEERKRWA [PCI8] showed a protein stability index of 3.13 ± 0.096.
With HLNFPNVKFLRIFISNV [SNF12] the protein stability index was 1.26 ± 0.094.
In the case of HLSHPGTNKDMILKLVC [ECM29], the protein stability index is reported as 1.45 ± 0.035.
HLSYCSNLTIYPIYELL [GRR1] showed a protein stability index of 2.87 ± 0.1.
HNAGPVAGAGAASGAAA [RPP1B] gave a protein stability index of 2.24 ± 0.05.
Sequence HNMLNLLIHRKGLTYLH [PRP8] has a protein stability index of 1.45 ± 0.038.
With HPFGHALVAGIERYPSK [RPL27B] the protein stability index was 2.67 ± 0.1.
Sequence HPIRLYTRYLDRIYMLF [PRP8] has a protein stability index of 1.76 ± 0.063.
HPWEQAKEVKVLYHTSG [PRP8] gave a protein stability index of 2.78 ± 0.14.
HQGTPLGSHSSSQKDGN [REC8] gave a protein stability index of 3.29 ± 0.093.
Work on HRKHIAVLKKIQSKAVE [YCG1] yielded a protein stability index of 2.81 ± 0.097.
For HRLKLCKSLISENEDTK [CSE2], the protein stability index was 3.24 ± 0.27.
Work on HRSGKIVVQLNGRLNKC [RPS22A] yielded a protein stability index of 3.52 ± 0.23.
For HSQFMKDLKDDSIYTKP [YJL039C/NUP192], the protein stability index was 3.02 ± 0.05.
Sequence HSRILPKKALKVKAGVR [RRP43] has a protein stability index of 1.63 ± 0.054.
HTEDTVNESRNSDDIID [SRB5] showed a protein stability index of 2.52 ± 0.056.
For HTLALEFVNGGKVVKNV [RRP46], the protein stability index was 2.22 ± 0.074.
For HTPTIASYLTPLLEAKK [SSN2], the protein stability index was 3.04 ± 0.051.
HTSPHQPSDVKPTSHKQ [SIR4] showed a protein stability index of 3.08 ± 0.059.
Sequence HVDSLIEDFVDGIANSK [SRB7] has a protein stability index of 3.3 ± 0.077.
With HVINVGKTWEKLVLAAR [RPS0A] the protein stability index was 3.49 ± 0.21.
Sequence HVKAGKGLIKVNGSPIT [RPS16A] has a protein stability index of 2.78 ± 0.059.
Sequence HVKIRATGGTRTKTPGP [RPS14B] has a protein stability index of 1.84 ± 0.15.
HVLKTVDYGGAEWSLVR [SNU114] showed a protein stability index of 3.42 ± 0.21.
HVNKRKRVSGTSQHSDS [YOR098C/NUP1] gave a protein stability index of 2.31 ± 0.11.
Work on HVTQEDFELAVGKVMNK [RPT6] yielded a protein stability index of 2.82 ± 0.13.
Sequence HVVGRIAEVGNKRWKVD [RRP4] has a protein stability index of 3 ± 0.17.
HYLVNLTSPAFGPHVDV [GRR1] gave a protein stability index of 2.87 ± 0.12.
Sequence HYPEIEDLVDRIENPEK [RPP0] has a protein stability index of 3.17 ± 0.081.
In the case of IAAIIGRLNTLVISLAA [IRR1], the protein stability index is reported as 1.99 ± 0.036.
IAATGLNQINGLNNDFL [GRR1] gave a protein stability index of 3.26 ± 0.14.
Sequence IAAYIRRHRNPDLQFIV [SMC1] has a protein stability index of 1.21 ± 0.047.
With IADLDTEAEETSIHSTI [RRP43] the protein stability index was 2.56 ± 0.17.
In the case of IAGHDEFNGFSLYQVDP [PRE8], the protein stability index is reported as 3.31 ± 0.15.
Sequence IAGTFNVGKPDQSIASG [YOR098C/NUP1] has a protein stability index of 2.68 ± 0.18.
Work on IAGVITRSKRLSQVYPT [CSN12] yielded a protein stability index of 2.84 ± 0.11.
In the case of IAHENEQKWLIYDKKDH [SRB8], the protein stability index is reported as 2.83 ± 0.093.
Work on IAHNISAKNRVVILARA [RPL32] yielded a protein stability index of 1.71 ± 0.058.
With IAKSRYWYFLQKLHKVK [RPL20A] the protein stability index was 3.06 ± 0.087.
IALEGYRLDIIESALKS [RPN2] gave a protein stability index of 1.49 ± 0.15.
With IAPRRKRLADGLSVTQK [DIS3] the protein stability index was 3.3 ± 0.074.
In the case of IAQSKKKNNKIKESSKK [SRP21], the protein stability index is reported as 2.96 ± 0.087.
IASMSTVRASSLQDLIY [SMC2] showed a protein stability index of 2.33 ± 0.1.
IAYGASQLLLERLMISS [RET1] showed a protein stability index of 1.94 ± 0.073.
For ICQIISSTITGDVVLAA [RPL5], the protein stability index was 1.89 ± 0.058.
IDDRDYVGNKRLELAGQ [RET1] gave a protein stability index of 3.47 ± 0.11.
For IDEPIKSIMDGIHDGHI [FAS1], the protein stability index was 1.87 ± 0.059.
In the case of IDFTLLNRLLRLIVDPN [PRP8], the protein stability index is reported as 1.88 ± 0.058.
In the case of IDGCVKIGDLGLARKFH [SSN3], the protein stability index is reported as 3.33 ± 0.08.
IDIQTQDLNQRFQDPYV [RRI1] gave a protein stability index of 2.86 ± 0.18.
Sequence IDLDHKRFLILQGEVEN [SMC4] has a protein stability index of 2.09 ± 0.087.
In the case of IDLLLLGQERATDLAGP [PRP8], the protein stability index is reported as 2.58 ± 0.083.
With IDMLPMLLGTDLCSLKP [DIS3] the protein stability index was 2.71 ± 0.065.
For IDQVNELVTISWVQPRI [RPN9], the protein stability index was 3.28 ± 0.069.
IDSFFLYVLPSFNIPRL [YMR129W/POM152] gave a protein stability index of 1.57 ± 0.038.
For IDSTDHIRKASSKKSKR [LRP1], the protein stability index was 1.99 ± 0.039.
IDYALTAVKQGVTSLGI [PRE8] gave a protein stability index of 2.07 ± 0.056.
In the case of IEDVTPVPSDSTRKKGG [RPS14B], the protein stability index is reported as 3.15 ± 0.045.
In the case of IEEHPTVVDAIDNSDEI [IRR1], the protein stability index is reported as 3.12 ± 0.076.
IEEIEYNVKNIIQGRKN [PCI8] gave a protein stability index of 2.18 ± 0.052.
